Patent US20230043289A1

Molecular target: Cynomolgus monkey Tau monomer (cynomolgus monkey)
Test: SPR 37C, hIgG captured, cyno Tau monomer 0.1-33.3 nM

Cynomolgus monkey Tau monomer (cynomolgus monkey), sequence (P10636 other isoform, or with tags, fused parts or gaps): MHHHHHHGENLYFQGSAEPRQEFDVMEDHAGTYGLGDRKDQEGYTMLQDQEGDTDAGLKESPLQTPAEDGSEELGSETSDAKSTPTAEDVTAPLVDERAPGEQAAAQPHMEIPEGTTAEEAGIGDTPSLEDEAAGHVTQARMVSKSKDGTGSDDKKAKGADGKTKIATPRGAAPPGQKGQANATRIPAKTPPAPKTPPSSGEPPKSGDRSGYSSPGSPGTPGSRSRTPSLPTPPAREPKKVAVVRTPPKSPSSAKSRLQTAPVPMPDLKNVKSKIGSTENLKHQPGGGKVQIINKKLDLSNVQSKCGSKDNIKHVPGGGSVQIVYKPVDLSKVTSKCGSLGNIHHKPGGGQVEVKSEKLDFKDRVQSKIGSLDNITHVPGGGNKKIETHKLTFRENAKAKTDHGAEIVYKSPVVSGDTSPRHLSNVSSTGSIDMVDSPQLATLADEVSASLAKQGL

B1: hu37D3-H9.v76 (antibody, V domains shown)
VH: EVQLVESGGGLVQPGGSLRLSCAASGLIFRSYGMSWVRQAPGKGLEWVATINSGGTRTYYPDSVKGRFTISRDNSKNTLYLQMNSLRAEDTAVYYCANSYSGAMDYWGQGTLVTVSS
VL: DDLLTQTPLSLPVTPGQPASISCRSSQSIVHSNGNTYLEWYLQKPGQSPQLLIYKVSNRFSGVPDRFSGSGSGTDFTLKISRVEAEDVGVYYCFQGTLVPWTFGQGTKVEIK
With B1 the Kd was 0.1 nM, the koff was 0.00114 s⁻¹ and the kon was 9.27e+06 M⁻¹ s⁻¹.

B2: hu37D3-H9.v83 (antibody, V domains shown)
VH: EVQLLESGGGLVQPGGSLRLSCAASGLIFRSYGMSWVRQAPGKGLEWVATINSGGTRTYYPDSVKGRFTISRDNSKNTLYLQMNSLRAEDTAVYYCANSYSGAMDYWGQGTLVTVSS
VL: DDLLTQSPLSLPVTLGQPASISCRSSQSIVHSNGNTYLEWYQQRPGQSPRLLIYKVSNRFSGVPDRFSGSGSGTDFTLKISRVEAEDVGVYYCFQGTLVPWTFGQGTKVEIK
B2 gave a Kd of 0.1 nM, a koff of 0.00114 s⁻¹ and a kon of 9.55e+06 M⁻¹ s⁻¹.

B3: hu37D3-H9.v93 (antibody, V domains shown)
VH: EVQLVESGGGLVQPGGSLRLSCAASGLIFRSYGMSWVRQAPGKGLEWVATINSGGTRTYYPDSVKGRFTISRDNSKNTLYLQMNSLRAEDTAVYYCANSYSGAMDYWGQGTLVTVSS
VL: EDLLTQSPSSLSASVGDRVTITCRSSQSIVHSNGNTYLEWYQQKPGKSPKLLIYKVSNRFSGVPSRFSGSGSGTDFTLTISSLQPEDFATYYCFQGTLVPWTFGQGTKVEIK
Binder B3 has a Kd of 0.1 nM, a koff of 0.00178 s⁻¹ and a kon of 1.29e+07 M⁻¹ s⁻¹.
